Reference: article PMC3121799, “Mechanism of Heparin Acceleration of Tissue Inhibitor of Metalloproteases-1 (TIMP-1) Degradation by the Human Neutrophil Elastase” (PLoS ONE, 2011)
Square brackets hold non-standard residues; d marks the D form. Ends that are not written are not given here. * marks the point of attachment. EDDnp = O=[N+]([O-])c1ccc(NCCN*)c([N+](=O)[O-])c1; 2Abz = Nc1ccccc1C(=O)O

What was measured:
His57 = His57 (UniProt position 70, VMSAAHCVANV); assay: kinetics; conditions: 37 °C, Constant ionic strength buffer system containing 140 mM NaCl, 25 mM glycine, 25 mM acetic acid, 25 mM Mes, 75 mM Tris, 0.05% (v/v) Triton X-100, pH adjusted with HCl or NaOH
Nterm16 = assay: kinetics; conditions: 37 °C, Constant ionic strength buffer system containing 140 mM NaCl, 25 mM glycine, 25 mM acetic acid, 25 mM Mes, 75 mM Tris, 0.05% (v/v) Triton X-100, pH adjusted with HCl or NaOH
[1] = target: T1, Human neutrophil elastase (human, UniProt P08246 30-267); assay: stopped-flow fluorescence kinetics of substrate hydrolysis (pre-steady-state, fit to a three-step mechanism with DynaFit IV); both in solution; 3.8 µM FRET-peptide, 12.6 nM HNE, 25°C, 10 mM Tris-HCl pH 7.4, 100 mM NaCl, no heparin; conditions: both partners purified
T1 sequence (P08246 30-267): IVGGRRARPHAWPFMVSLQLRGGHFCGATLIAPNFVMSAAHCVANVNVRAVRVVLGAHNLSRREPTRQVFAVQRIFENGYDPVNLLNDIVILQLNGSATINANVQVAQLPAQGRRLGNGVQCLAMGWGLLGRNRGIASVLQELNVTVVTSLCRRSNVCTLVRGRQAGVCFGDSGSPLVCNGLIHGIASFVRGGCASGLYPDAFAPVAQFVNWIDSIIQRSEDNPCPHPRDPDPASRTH

[2] = target: T1, Human neutrophil elastase; assay: stopped-flow fluorescence kinetics of substrate hydrolysis (pre-steady-state, fit to a three-step mechanism with DynaFit IV); both in solution; 3.8 µM FRET-peptide, 12.6 nM HNE (12.7 nM in the methods), 25°C, 10 mM Tris-HCl pH 7.4, 100 mM NaCl, with 50 µM heparin; conditions: both partners purified
[3] = Free enzyme, no heparin (control)
[4] = Heparin-bound enzyme (50 µM 14 kDa heparin)

“Human neutrophil elastase (HNE; leukocyte elastase, EC 3.4.21.37) (Homo sapiens)” showed a pKa (His57; [3]) of 6.71±0.05, a pKa (His57; [4]) of 7.04±0.07 and a pKa (Nterm16; [3]) of 8.93±0.05. The pKa (Nterm16; [4]) was 9.60±0.07.

B1: FRET-peptide Abz-AMESVMGYFHRSQ-EDDnp (peptide)
peptide: [2Abz]AMESVMGYFHRSQ-EDDnp
notes: the peptide has Met where TIMP-1 has Cys70 (cleaved bond Val-Met); also called FRET-peptide substrate; FRET substrate; source: synthetic peptide (solid phase, Fmoc; HPLC purified)
In the case of B1, the koff [1] is reported as 0.25 s⁻¹, the kon [1] is reported as 350000 M⁻¹ s⁻¹ and the koff [2] is reported as 0.081 s⁻¹. For the same molecule, the kon [2] was 820000 M⁻¹ s⁻¹.
